# Paper PMC10063446 (Nature Immunology, 2023)
# Where a chain is given by its changes, count along the chain named. In names and notes the source's numbering stands.
# B1: P5-2H11 (antibody, V domains shown)
# VH: EVQLVESGGGLIQPGGSLRLSCAASEFTVSSNYMSWVRQAPGKGLEWVSIIYSGGSTFYADSVKGRFTISRDNSQNTLYLQMNSLRAEDTAVYYCARTLPLYGDYFDYWGQGTLVTVSS
# VL: QSVLTQPPSVSGAPGQRVTISCTGSSSNIGAGYDVHWYQQLPGTAPKLLIYGNNNRPSGVPDRFSGSKSGTSASLAITGLQPEDEADYYCQSYDSSLSVVFGGGAKLTVL
# B2: P195-1E11 (antibody, V domains shown)
# VH: EVQLVESGGGLVQPGRSLRLSCAASGFTFDDYAMHWVRQAPGKGLEWVSGISWNSGSIVYADSVKGRFTISRDNAKNSLYLQMNSLRAEDTALYYCAKDSEDCSSTNCYFDYWGQGTLVTVSS
# VL: not shown
# B3: P10S-2F9 (antibody, V domains shown)
# VH: QVTLRESGPALVKPTQTLPLTCTFSGFSLSTSGMCVSWIRQPPGKALEWLALIDWDDNKYYSTSLKARLTISKDTSKNQVVLTMTNMDPVDTATYYCARIPALLRYLDKFYYFGMDVWGQGTTVTVSS
# VL: QSVLTQPPSVSAAPGQKVTISCSGSSPNIGNNYVSWYQQLPGTAPKLLIYDNNKRPSGIPDRFSGSKSGTSATLGITGLQTGDEAGYYCGTWDSSLSAVVFGGGTKLTVL
# B4: P10S-1D8 (antibody, V domains shown)
# VH: QMQLVQSGPEVKKPGTSVKVPCKASGFTFSSSAVQWVRQARGQRLEWIGWIVVGSGNTNYAQKFQERVTITRDMSTSTAYMELSSLRSEDTAVYYCAAPGCNSTSCYDGFDIWGQGTMVTVSS
# VL: not shown
# B5: P195-1B7 (antibody, V domains shown)
# VH: QITLKESGPTLVKPTQTLTLTCTFSGFSLSTSGVGVGWIRQPPGKALEWLALIYWDDDKRYSPSLKSRLTITKDTSKNQVVLTMTNMDPVDTATYYCAHSGYSGYDWRGFDYWGQGTLVTVSS
# VL: SYELTQPPSVSVSPGQTARITCSADALPKQYAYWYQQKPGQAPVLVIYKDSERPSGIPERFSGSSSGTTVTLTISGVQAEDEADYYCQSADSSGTYPVVFGGGTKLTVL
# B6: P2-2D8 (antibody, V domains shown)
# VH: EVQLVESGGGLVKPGGSLRLSCAASGFTFSNAWMNWVRQAPGKGLEWVGRIKSKADGGTTDYAAPVKGRFTISRDDSKNTLYLQMNSLKTDDTAVYYCTTTRAVAATLNFLFSYYDGMDVWGQGTTVTVSS
# VL: NFMLTQPHSVSESPGKTVTISCTGSSGSIASNYVQWYQQRPGSAPTTVIYEDNQRPSGVPDRFSGSIDSSSNSASLTISGLKTEDEADYYCQSYDSNNHLVLFGGGTKLTVL
# B7: P186-2B1 (antibody, V domains shown)
# VH: EVQLVESGGGLVQPGGSLRLSCAASGFTVSSNYMSWVRQAPGKGLEWVSVIYSGGSTYYTDSVKGRFTISRHNSKNTLYLQMNSLRVEDTAVYYCARVGTNYINNSGWYFDYWGQGTLVTVSS
# VL: not shown
# B8: P186-1H2 (antibody, V domains shown)
# VH: EVQLVESGGGLVQPGRSLRLSCAASGFTFGDYAMHWVRQSPGKGLEWVSGITWNSAGIGYADSVKGRFTISRDNAKNSLYLQMNSLRVEDTALYYCAKAPKWGGVDYLFDYWGQGTLVTVSS
# VL: not shown
# B9: P195-2A3 (antibody, V domains shown)
# VH: QVTLRESGPALVKPTQTLTLTCTFSGFSLSTSGMCVSWIRQPPGKALEWLALIDWDDDKYYSTSLKTRLTISKDTSKNQVVLRMTNMDPVDTATYYCARSWVGGGLDVWGQGTTVTVSS
# VL: not shown
# B10: P104-1G2 (antibody, V domains shown)
# VH: QLQLQESGPGLVKPSETLSLTCTVSGGSISSSSYYWGWIRQPPGKGLEWIGSIYYGGSTYYNPSLKSRVTISVDTSKNQFSLKLSSVTAADTAVYYCARSLGIFDYWGQGTLVTVSS
# VL: DIQMTQSPSSLSASVGDRVTITCRASQGISNSLAWYQQKPGKAPKLLLYGASTLESGVPSRFSGSGSATDYTLTISSLQPEDFATYYCQQYYSNPPYTFGQGTKLEIK
# B11: P5S-1D8 (antibody, V domains shown)
# VH: EVQLVESGGGLVQPGRSLRLSCAASGFTFDDYAMYWVRQAPGKGLEWVSGVSWNSGTIGYADSVKGRFIISRDNAKNSLYLQMRSLRTEDTALYYCAKDSATRYYSGSDYTSYGMDVWGQGTTVTVSS
# VL: QSALTQPASVSGSPGQSITVSCTGTSSDIGDYNYVSWYQQHPGKAPKLMIYDVSNRPSGASNRFSGSKSGNTASLTISGLQAEDEADYYCSSYTSSSTVVFGGGTKVTVL
# B12: P2-1D5 (antibody, V domains shown)
# VH: QVQLVESGGGVVQPGRSLRLSCAASGFTFSSSVMHWVRQAPGKGLEWVALIWYDGSNKYYADSVKGRFTISRDNSKNTLYLQMNSLRAEDTAVYYCARDREITMTTFDYWGQGTLVTVSS
# VL: not shown
# B13: P2S-2A6 (antibody, V domains shown)
# VH: EVQLVESGGGLVQPGRSLRLSCAASGMTFDDYDMHWVRQVPGKGLEWVSGISWNGGIIGYADSVKGRFTISRDNAKTSLYLQMNSLRAEDTALYYCAKVAGRGDYDYYYGMDVWGQGTTVTVSS
# VL: QSVLTQPPSVSGAPGQRVTISCTGSSSNIGAGYDVHWYQQLPGTAPKLLIYGNNNRPSGVPDRFSGSKSGTSASLAITGLQAEDEADYYCQSYDSSLSGSVFGGGTKLTVL
# B14: P5S-3D10 (antibody, V domains shown)
# VH: EVQLVESGGDLVQPGRSLRLSCAASGFTFSLFAMSWVRQAPGKGLEWVSTISGRGDSSYYADSVKGRFTISRDNSKNTLYLQITGLRAEDTAVYYCAKGVDGDYGNWFDPWGQGALVTVSS
# VL: SYVLTQPPSVSVAPGKTARITCGGNNIGSKSVHWYQQKPGQAPVLVIYYDSDRPSGIPERISGSNSGNTATLTISRVEAGDEADYYCQVWHSSSVIFGGGTKLTVL
# B15: P2-2H8 (antibody, V domains shown)
# VH: QVQLVQSGAEVKKPGSSVKVSCKASGGTFSSYAISWVRQAPGQGLEWMGRIISMLGIANYAQKFQGRVTITADKSTSTAYMELSSLRSEDTAIYFCARDPDIHYDSSGYSHYYGMDVWGQGTTVTVSS
# VL: DIVMTQSPLSLPVTPGEPASISCRSSQSLLHGNGYNYLDWYLQRPGQSPQLLIYLGSNRASGVPGRFSGSGSGTDFTLKISRVEAEDVGVYYCMQALQTLITFGQGTQLEIK
# B16: P2S-1H6 (antibody, V domains shown)
# VH: B13 VH with M27F, V40A, R87K, A88P
# VL: B13 VL
# Target: recombinant RBD protein of wild-type SARS-CoV-2 (ELISA antigen) (SARS-CoV-2 wild-type, UniProt P0DTC2)
row,Binder,binding result
1,B1,binds
2,B2,binds
3,B3,binds
4,B4,binds
5,B5,binds
6,B6,binds
7,B7,binds
8,B8,binds
9,B9,binds
10,B10,binds
11,B11,binds
12,B12,binds
13,B13,binds
14,B14,binds
15,B15,binds
16,B16,binds

# Target: recombinant wild-type SARS-CoV-2 S trimer (ELISA antigen) (SARS-CoV-2 wild-type, UniProt P0DTC2)
row,Binder,binding result
1,B1,binds
2,B2,binds
3,B3,binds
4,B4,binds
5,B5,binds
6,B6,binds
7,B7,binds
8,B8,binds
9,B9,binds
10,B10,binds
11,B11,binds
12,B12,binds
13,B13,binds
14,B14,binds
15,B15,binds
16,B16,binds
